# *1 amine or outer side, *2 acyl side, *3 side chain or, on linkers, in order; H or OH if unused. Bridges are numbered along the chain shown (N, C = ends). Primed or numbered codes have the meaning given here. [ ]: non-standard residue; d: D form. PyrS2(6) = (S)-3-amino-1-((pent-4-en-1-yloxy)carbonyl)pyrrolidine-3-carboxylic acid, stapled with another olefin-containing amino acid residue through the olefin group, O=C(OCCCC=[*:3])N1CC[C@@](N[*:1])(C(=O)[*:2])C1; B5(4) = 2-amino-2-(pent-4-en-1-yl)hept-6-enoic acid, stapled through each of its two olefin groups with other olefin-containing amino acid residues, O=C(C(CCCC=[*:3])(CCCC=[*:4])N[*:1])[*:2]; PyrS2″ = (S)-3-amino-1-((pent-4-en-1-yloxy)carbonyl)pyrrolidine-3-carboxylic acid (olefin stapling residue), C=CCCCOC(=O)N1CC[C@@](N[*:1])(C(=O)[*:2])C1; PyrS2(3) = (S)-3-amino-1-((pent-4-en-1-yloxy)carbonyl)pyrrolidine-3-carboxylic acid, olefin residue, C=CCCCOC(=O)N1CC[C@@](N[*:1])(C(=O)[*:2])C1; PyrS2(5) = (S)-3-amino-1-((pent-4-en-1-yloxy)carbonyl)pyrrolidine-3-carboxylic acid, C=CCCCOC(=O)N1CC[C@@](N[*:1])(C(=O)[*:2])C1; B5″ = 2-amino-2-(pent-4-en-1-yl)hept-6-enoic acid (bis-olefin stapling residue), C=CCCCC(CCCC=C)(N[*:1])C(=O)[*:2]; B5(5) = 2-amino-2-(pent-4-en-1-yl)hept-6-enoic acid (two olefin arms), C=CCCCC(CCCC=C)(N[*:1])C(=O)[*:2]; B5(3) = 2-amino-2-(pent-4-en-1-yl)hept-6-enoic acid, two olefin arms, C=CCCCC(CCCC=C)(N[*:1])C(=O)[*:2]; 2F3MeF(3) = aromatic amino acid residue, Cc1cccc(C[C@H](N[*:1])C(=O)[*:2])c1F; 2F3MeF″ = aromatic residue, Cc1cccc(C[C@H](N[*:1])C(=O)[*:2])c1F; Phe(3-COOH) = N[C@@H](Cc1cccc(C(=O)O)c1)C(=O)O; 2F3MeF = Cc1cccc(C[C@H](N[*:1])C(=O)[*:2])c1F; Bta = N[C@@H](Cc1csc2ccccc12)C(=O)O; αAllylPro = C=CC[C@@]1(C(=O)O)CCCN1; BztA = aromatic amino acid residue; 4mampiperidine = not defined here; tBuAla = CC(C)(C)C[C@H](N)C(=O)O; 3Thi = N[C@@H](Cc1ccsc1)C(=O)O; Cha = N[C@@H](CC1CCCCC1)C(=O)O; TriAzLys(3) = not defined here; hSer = N[C@@H](CCO)C(=O)O; BztA″ = aromatic residue; Orn = NCCC[C@H](N)C(=O)O; TfeGA = not defined here; AsnR = not defined here; GlnR = not defined here; sAla = not defined here; PL3 = not defined here; B5 = not defined here
# B1: I-86 (peptide)
# peptide: Ac-[PL3]D[tBuAla][B5]N[Phe(3-COOH)]SAFK[PyrS2″][3Thi][BztA][GlnR]A-NH2
# modifications: staple 1-4 (inferred); bridge 10-14; not fully specified (residue 10, bridges); printed as Ac-PL3-Asp-Npg-B5-Asn-3COOHF-Ser-Ala-Phe-Lys*3-PyrS2-3Thi-BztA-GlnR*3-Ala-NH2; reading uncertain; also: Lys10 and GlnR14 marked *3
# B2: I-128 (peptide)
# peptide: Ac-[αAllylPro]D[tBuAla][B5(4)]D[TfeGA]AAFK[PyrS2″][2F3MeF][Bta][GlnR]L-NH2
# modifications: bridge 10-14; not fully specified (bridges); reading uncertain; also: Lys*3 and GlnR*3 marked *3
# B3: I-123 (peptide)
# peptide: Ac-[αAllylPro]D[tBuAla][B5(4)]D[TfeGA]FAFK[PyrS2″][2F3MeF][Bta][GlnR]A-NH2
# modifications: bridge 10-14; not fully specified (bridges); reading uncertain; also: Lys*3 and GlnR*3 marked *3
# B4: I-81 (peptide)
# peptide: Ac-[PL3][hSer][tBuAla][B5]D[Phe(3-COOH)]AAFK[PyrS2″][3Thi][BztA][GlnR]A-NH2
# modifications: staple 1-4 (inferred); bridge 10-14; not fully specified (residue 10, bridges); printed as Ac-PL3-Hse-Npg-B5-Asp-3COOHF-Ala-Ala-Phe-Lys*3-PyrS2-3Thi-BztA-GlnR*3-Ala-NH2; reading uncertain
# B5: I-89 (peptide)
# peptide: Ac-[PL3][hSer][tBuAla][B5]D[Phe(3-COOH)]QAFK[PyrS2″][3Thi][BztA][GlnR]A-NH2
# modifications: staple 1-4 (inferred); bridge 10-14; not fully specified (residue 10, bridges); printed as Ac-PL3-Hse-Npg-B5-Asp-3COOHF-Gln-Ala-Phe-Lys*3-PyrS2-3Thi-BztA-GlnR*3-Ala-NH2; reading uncertain; also: Lys10 and GlnR14 marked *3
# B6: I-85 (peptide)
# peptide: Ac-[PL3][hSer][tBuAla][B5]D[Phe(3-COOH)]SAFK[PyrS2″][3Thi][BztA][GlnR]A-NH2
# modifications: staple 1-4 (inferred); bridge 10-14; not fully specified (residue 10, bridges); printed as Ac-PL3-Hse-Npg-B5-Asp-3COOHF-Ser-Ala-Phe-Lys*3-PyrS2-3Thi-BztA-GlnR*3-Ala-NH2; reading uncertain; also: Lys10 and GlnR14 marked *3
# B7: I-132 (peptide)
# peptide: Ac-[αAllylPro]D[tBuAla][B5]D[Phe(3-COOH)][GlnR](29N2spiroundecane)AFL[PyrS2″][2F3MeF″][BztA″][GlnR]A-NH2
# modifications: reading uncertain; also: staple links not given here, printed as Ac-PL3-Asp-Npg-B5-Asp-3COOHF-[29N2spiroundecane]GlnR-Ala-Phe-Leu-PyrS2-2F3MeF-BztA-GlnR-Ala-NH2
# B8: I-59 (peptide)
# peptide: Ac-[αAllylPro]D[tBuAla][B5(3)]D[Phe(3-COOH)]AAFK[PyrS2(3)][2F3MeF″][Bta][AsnR]A-NH2
# modifications: bridge 10-14; not fully specified (bridges); printed as Ac-PL3-Asp-Npg-B5-Asp-3COOHF-Ala-Ala-Phe-Lys*3-PyrS2-2F3MeF-BztA-AsnR*3-Ala-NH2; reading uncertain
# B9: I-130 (peptide)
# peptide: Ac-[αAllylPro]D[tBuAla][B5]D[Phe(3-COOH)][GlnR]AFL[PyrS2″][2F3MeF″][BztA″][(39N2spiroundecane)GlnR]A-NH2
# modifications: reading uncertain; also: staple links not given here, printed as Ac-PL3-Asp-Npg-B5-Asp-3COOHF-GlnR-Ala-Phe-Leu-PyrS2-2F3MeF-BztA-[39N2spiroundecane]GlnR-Ala-NH2
# B10: I-58 (peptide)
# peptide: Ac-[αAllylPro]D[tBuAla][B5(3)]D[Phe(3-COOH)]AAFK[PyrS2(3)][2F3MeF″][Bta][AsnR]A-NH2
# modifications: bridge 10-14; not fully specified (bridges); printed as Ac-PL3-Asp-Npg-B5-Asp-3COOHF-Ala-Ala-Phe-Lys*3-PyrS2-2F3MeF-BztA-AsnR*3-Ala-NH2; reading uncertain
# B11: I-83 (peptide)
# peptide: Ac-[PL3]D[tBuAla][B5][hSer][Phe(3-COOH)]AAFK[PyrS2″][3Thi][BztA][GlnR]A-NH2
# modifications: staple 1-4 (inferred); bridge 10-14; not fully specified (residue 10, bridges); printed as Ac-PL3-Asp-Npg-B5-Hse-3COOHF-Ala-Ala-Phe-Lys*3-PyrS2-3Thi-BztA-GlnR*3-Ala-NH2; reading uncertain
# B12: I-96 (peptide)
# peptide: Ac-[αAllylPro]D[tBuAla][B5(4)]D[Phe(3-COOH)][GlnR]AFL[PyrS2″][2F3MeF(3)][BztA][GlnR](4mampiperidine)A-NH2
# modifications: staple 1-4 (inferred); not fully specified (bridges); printed as Ac-PL3-Asp-Npg-B5-Asp-3COOHF-GlnR-Ala-Phe-Leu-PyrS2-2F3MeF-BztA-[4mampiperidine]GlnR-Ala-NH2; reading uncertain
# B13: I-94 (peptide)
# peptide: Ac-[αAllylPro]D[tBuAla][B5(4)]D[Phe(3-COOH)][GlnR](4aminopiperidine)AFL[PyrS2″][2F3MeF(3)][BztA][GlnR]A-NH2
# modifications: staple 1-4 (inferred); not fully specified (bridges); printed as Ac-PL3-Asp-Npg-B5-Asp-3COOHF-[4aminopiperidine]GlnR-Ala-Phe-Leu-PyrS2-2F3MeF-BztA-GlnR-Ala-NH2; reading uncertain
# B14: I-93 (peptide)
# peptide: Ac-[αAllylPro]D[tBuAla][B5(4)]D[Phe(3-COOH)][GlnR]AFL[PyrS2″][2F3MeF(3)][BztA][GlnR](4aminopiperidine)A-NH2
# modifications: staple 1-4 (inferred); not fully specified (bridges); printed as Ac-PL3-Asp-Npg-B5-Asp-3COOHF-GlnR-Ala-Phe-Leu-PyrS2-2F3MeF-BztA-[4aminopiperidine]GlnR-Ala-NH2; reading uncertain
# B15: I-148 (peptide)
# peptide: Ac-[αAllylPro]N[Cha][B5″]DQ[hSer]AF[GlnR][PyrS2″]F[Bta]K-NH2
# modifications: bridge 10-14; reading uncertain; also: PL3-B5 and PyrS2 links not placed, printed as Ac-PL3-Asn-Cha-B5-Asp-Gln-Hse-Ala-Phe-GlnR*3-PyrS2-Phe-BztA-Lys*3-NH2
# B16: I-27 (peptide)
# peptide: Ac-[αAllylPro]D[tBuAla][B5(4)]D[Phe(3-COOH)][sAla]AF[TriAzLys(3)][PyrS2(6)][3Thi][Bta]Q-NH2
# modifications: triazole 7-10; not fully specified (bridges); printed as Ac-PL3-Asp-Npg-B5-Asp-3COOHF-sAla*3-Ala-Phe-TriAzLys*3-PyrS2-3Thi-BztA-Gln-NH2; reading uncertain
# B17: I-41 (peptide)
# peptide: Ac-[αAllylPro]D[tBuAla][B5(5)]D[Phe(3-COOH)]AAF[AsnR][PyrS2(5)][3Thi][Bta][Orn]-NH2
# modifications: bridge 10-14; reading uncertain; also: PL3/B5/PyrS2 staple links not placed, printed as Ac-PL3-Asp-Npg-B5-Asp-3COOHF-Ala-Ala-Phe-AsnR*3-PyrS2-3Thi-BztA-Orn*3-NH2
# B18: I-91 (peptide)
# peptide: Ac-[PL3]D[tBuAla][B5][hSer][Phe(3-COOH)]QAFK[PyrS2″][3Thi][BztA][GlnR]A-NH2
# modifications: staple 1-4 (inferred); bridge 10-14; not fully specified (residue 10, bridges); printed as Ac-PL3-Asp-Npg-B5-Hse-3COOHF-Gln-Ala-Phe-Lys*3-PyrS2-3Thi-BztA-GlnR*3-Ala-NH2; reading uncertain; also: Lys10 and GlnR14 marked *3
# B19: I-117 (peptide)
# peptide: Ac-[αAllylPro]D[tBuAla][B5″]N[TfeGA]AAFK[PyrS2″][2F3MeF][Bta][GlnR]A-NH2
# modifications: bridge 10-14; not fully specified (bridges); reading uncertain; also: Lys*3 and GlnR*3 marked *3
# B20: I-36 (peptide)
# peptide: Ac-[αAllylPro]D[tBuAla][B5(5)]D[Phe(3-COOH)]AAF[AsnR][PyrS2(5)][3Thi][Bta]K-NH2
# modifications: bridge 10-14; not fully specified (bridges); printed as Ac-PL3-Asp-Npg-B5-Asp-3COOHF-Ala-Ala-Phe-AsnR*3-PyrS2-3Thi-BztA-Lys*3-NH2; reading uncertain
# Target: beta-catenin (human)
# Sequence (B6V8E6 146-665 limits assumed): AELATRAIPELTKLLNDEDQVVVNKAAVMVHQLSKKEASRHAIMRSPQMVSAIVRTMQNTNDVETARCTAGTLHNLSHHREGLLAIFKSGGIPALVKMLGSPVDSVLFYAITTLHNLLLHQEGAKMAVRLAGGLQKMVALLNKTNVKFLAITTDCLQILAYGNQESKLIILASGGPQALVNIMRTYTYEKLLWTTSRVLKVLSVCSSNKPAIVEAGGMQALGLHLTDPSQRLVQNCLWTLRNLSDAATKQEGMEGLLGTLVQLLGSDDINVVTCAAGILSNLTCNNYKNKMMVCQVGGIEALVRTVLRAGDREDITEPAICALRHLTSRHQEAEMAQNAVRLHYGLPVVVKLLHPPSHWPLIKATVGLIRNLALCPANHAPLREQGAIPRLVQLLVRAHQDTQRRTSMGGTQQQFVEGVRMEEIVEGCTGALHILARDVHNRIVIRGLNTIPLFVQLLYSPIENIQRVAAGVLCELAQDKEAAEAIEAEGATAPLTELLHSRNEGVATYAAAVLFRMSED
# Assay: fluorescence polarization; bin >50 nM
row,IC50 [nM],Binder
1,< 200,B1
2,< 200,B2
3,< 200,B3
4,< 200,B4
5,< 200,B5
6,< 200,B6
7,< 200,B7
8,< 200,B8
9,< 200,B9
10,< 200,B10

# Target: beta-catenin (human)
# Assay: cell-based or functional assay
NanoBRET Abs IC50 (bin >3.0 uM) [nM],NanoBRET Abs IC50 [nM],Binder
< 10000,,B2
,> 10000,B3
,> 10000,B7
,> 10000,B8
,> 10000,B9
,> 10000,B10

# Target: beta-catenin (human)
# Assay: fluorescence polarization; bin >200 nM
row,IC50 [nM],Binder
1,< 750,B11
2,< 750,B12
3,< 750,B13
4,< 750,B14
5,< 750,B15
6,< 750,B16
7,< 750,B17
8,< 750,B18
9,< 750,B19
10,< 750,B20

# — patent publication US20260207704A1, “STAPLED PEPTIDES AND METHODS THEREOF” (priority 2022, published 2026)
